Experimental data as given in the DeepSol protein solubility set.

Assay: soluble on expression in E. coli; label from the status in PepcDB or PDB records

| Sequence | soluble on expression in E. coli |
| --- | --- |
| MVALAILRVEKLKSFGNVGGSEKHTARLQDTPNADTTKKNIRLIGMEDNSSLEDLVKTKIANTTKHKPRKDAVLCSEMFLSASPEYFRPDDPSRAGEWNHERMVLFAGASRQWLINNYGDKCVRAELHLDEATPHIHAYIVPINDKTKQLSHKEMFGGNGRVGSIKLSKLQDSYASALAPLGIERGVKGSKATHTKVKEYYQAVNSEPLTAVWSNKKLAPQPLESATNYVARIQNDDQFHAINHQLADRAFMQERLERAEQRARASEKERQRLEKEVRSLELKTQQLRDLELLDVAWELGLDYERERWRGHGHIINIDGSKFYDFSPDQQKGGGGAIDLVMHVNQCNFRQAVVWLHERFGEAGVERAAIAHVKNRAADIIQAEPRPQFTPPVENKANWPAVERYLTQQRGIPSDCLQMLQNLGLLYADDQQNAVFVMRDLEGQTSGAFLRGTRGENNSFKGYSKGTKRSDSWFYFGLGGQATDKVAHVLLCSSPIEAVSRAMLEYFVRGNVPPERTLYMAVDNINSLPVERLQNVPNILVTFGKDQSTNAAAQRVLELLPQSQQVLSKAADWNQQLLEYGWQLRRQQYQQQDDELSILEHHHHHH | not soluble |
| MSLKRYSGFLIDLDGTMYRGSEVITEAVAFVKQLEKQSASYLFVTNNSTKSPETVATLLKSMDVPATKEHVFTSSMAMASYLTRTKEFVRAFVIGEEGLLESLKESGMMVSEDEQPDYVVMGLDRAISYEKLAKAATYVRQGAKFFITNGDAALPTEKGLMPGNGSLAAVVATTTGVKPFVVGKPSPIIIEEALKRLGTTKEETLLIGDNYDTDILAGIHAGIDTLLVHTGVTTKEALKQKEAQPTYTCESLADWQRSIEEEGHHHHHH | soluble |
| MSLKHLGQTRSALHGSHAVITPETFVRTALAEWPGSAIVLHIAPVVGLGARFVQFTAEMPAGAQATESVYQRFAFVLSGEVDVAVGGETRTLREYDYVYLPAGEKHMLTAKTDARVSVFEKPYQTVEGVQAPGVYWGNERENPGYPFEGDDHLIARKLLPDEPAFDFMVSTMSFAPGASLPYAEVHYMEHGLLMLEGEGLYKLEENYYPVTAGDIIWMGAHCPQWYGALGRNWSKYLLYKDMNRHPLEGGSHHHHHH | soluble |
| MQKSVLITGCSSGIGLDSALELKRQGFQILAGCRKPDDVARMNSMGFTGVLIDLDSPESVDRAADEVIALTDNRLYGIFNNAGYGVYGPLSTISREQMEQQFSSNFFGAHQLTMRLLPAMLPHGEGRIVMTSSVMGLISTPGRGAYAASKYALEAWSDALRMELRHTGIKVSLIEPGPIRTRFTDNVNQTQRDKPVENPGIAARFTRDPDAVVAKVRHAFASDKPRLRYPVTLVTWAVMALKRILPGRMLDKILQS | not soluble |
| EHAPATTGPLPSAPRDVVASLVSTRFIKLTWRTPASDPHGDNLTYSVFYTKEGIARERVENTSHPGEMQVTIQNLMPATVYIFRVMAQNKHGSGESSAPLRVETQPE | soluble |
| MVNPQAGVVVGYWHNWCGGAGYKGGVAPCVSLAQVNPQYNVVDISFMKVYGATGSIPTFKLDPAVGLSEAQFIDQIGELNRQGRAVLIALGGADAHIELRKGQEHDLANEIIRLVEKYGFDGLDIDLEQAAVTAADNQIVIPAALRIVKDHYRKQQKNFLITMAPEFPYLTTGGKYVPYINALEGYYDWINPQFYNQGGDGIYIEGIGWIAQNNDSLKQEFIYHISDALVNGTNGFTKIPHDKLVFGIPTNIDAAATGYVSDPNALFAAFEQLKNQGQPLRGLMTWSVNWDMGKNAAGQAYNESFIKAYGPFIHGQDITPPEPENGKPIFSGLSNTRVKLGGTFNAMDGVSAYDEEDKDLTQQIQVTGDVNTNQIGLYPLTYKVTDSDNNTTEQVRTVEVYNTKPELSGVSNTTIILATPFDAMAGVSATDAEDGNLTPNIRVEGEVDSNRVGQYQLTYSVSDSAGEQTRAVRLVTVQEQGAVCENLWSASKIYLGGDTVNYAGKIWLAGWWTQGEQPDLAGEWGVWKSKGDSDCDSGLPPVITPNFTVSGLASSYILNQGQVSINFNVNTNQAMELTANLTQEQRILASTTATINGNGAMVLQAESLEAGAYQVVISAKDKNLTQSYNVSLVQGDDGSEPVEYPAYVAGNQYQAGNIVTNAGGVYQCRPWPNSGWCSGSAPYYAPGTGSAWQDAWTKHLEHHHHHH | soluble |
| MGSDKIHHHHHHMIDLHCHILPNIDDGAKSIDEAIALVALAAEQGVSRMVATPHIHLGIYDNNLQSINAAYHLLCDALALTNIDIQLRAAAEVRVSPEIMLFIEQQQLPFLGRYQQKDVLLLELPSSHIPPGTDKLISWLLAKNVLPMIAHPERNRELQSHPERITPFVRAGCLFQLTAASLIGDMGEAPKQLSEYFIKQKLYSIIGSDCHSLNRRPPKLLQAQHAVTALTDQEYAFALTTSMPGSISNVLFAESSD | not soluble |
| GMSRTNINFNNKRTELANKIWDIFIANGYENTTLAFIINKLGISKGALYHYFSSKEECADAAIENRVAFFSNEVLKESEEGLNSIERLKKILLAGIKITSVNEQVKEINSPSNKIFHQKLMVAIIKYFAPIYADIISQGNEEGVFKVKYPLETAEIILTLSHFYLDEDLFKWKKEDMSLKLTAFKETLIKILDADEDTFDFIK | soluble |
| MSLGIPPNEAKTLGTYVPGDITLVDSYGNEFQLKNLKGKPIILSPIYTHCRAACPLITKSLLKVIPKLGTPGKDFWVITFTFDPKDTLEDIKRFQKEYGIDGKGWKVVKAKTSEDLFKLLDAIDFRFMTAGNDFIHPNVVVVLSPELQIKDYIYGVNYNYLEFVNALRLARGEGHHHHHH | soluble |
| MGSDKIHHHHHHMETLFRSFRTQLEHTSTEVVRFLHDQIAWDSRLVAILGARGVGKTTLLLQHIKLYDREDESLYVTADDFYFTKYRLFDMAYQFYNLGGKKLYIDEIHKYKDWSREVKNIYDQIPGLQVIYTGSSILDLEKGGADLSRRKVEYRLPGLSFREYLNISQGWQLPSYSLEEILAGKVEFPYKEARPLKLFNDYLSTGYYPFFQDTEYLLRLRSVINQMVESDIPIFADMTVASAVKLKKLLYVLAQSVPFKPNYTKLARDLDISRNVLPDYMSYLEKAGLVNLLREKAQGLKLLEKVEKIYLNNTNLAYALSEQVPDIGSVRETVFLSWMRVVCFVTSSAISDFEIDGRTFEIGGKNKTRQQIKQAADGYVVKDDIEYAFRNMIPLWMFGFIY | not soluble |
| GPGGGSEAYFRVESGALGPEENFLSLDDILMSHEKLPVRTETAMPRLGAFFLERSAGAETDNAVPQGSKLELPLWLAKGLFDNKRRILSVELPKIYQEGWRTVFSADPNVVDLHKMGPHFYGFGSQLLHFDSPENADISQSLLQTFIGRFRRIMDSSQNAYNEDTSALVARLDEMERGLFQTGQKGLNDFQCWEKGQASQITASNLVQNYKKRKFTDMED | soluble |
| MSLEEVIEQLREANEPVPVPLELPDEDQLVEIEEQLFINIPFVFKEFLLTVSDVVYGSLEPVTVTDPQSHTYLPEVCATAWDLGVPRELIPICQDGEDYYCVEEDGTVLLWSAEEELVTEESWESVWHWARDVWLESEGHHHHHH | soluble |
| MAERPRTIGNALEYVPEAIKTEAICLAALEIQRYGTVLKYIPDALKTEAMCLAAVQKYGYALEYVPEALKTEAICLAAGYEELQYWPEALKTEAVCLAAVEKNSKLLEFVPEALKTEAVCLAAGYKELQYWPEALKTEAPYLAAVQKDGSMLATVPEALKTEAFCLAAVQKNVRAFEYVPEALKTEAVCLAAVEKNGKLLEFVPEALRTEAICLAALQKDSSLLQYIPEALKTEAFCLTAVQKDSSLLQYVPEAFKTEVICLAAVQKDSSLLQYIPEALKTEAFYLAAVRKDGYSLKYIPEALKTEAICLAAVQKNGYLLKYVPEALKTEAICLSAVKQEGSALAYVPEALKTEALCLAAVQKNSSLLQYVPDTFKTEAFEAKMRSVISSGSGSSGYGIELIKWKFLSKEQKEWLEKIPYYYDSSKALEIPAELFTEEFCLAVVLKNSDGSVLQYIPDAKKTEAVCLAAVHERYKNALRYIPDALKT | not soluble |
| MAAYSYRPGPGAGPGPAAGAALPDQSFLWNVFQRVDKDRSGVISDTELQQALSNGTWTPFNPVTVRSIISMFDRENKAGVNFSEFTGVWKYITDWQNVFRTYDRDNSGMIDKNELKQALSGFGYRLSDQFHDILIRKFDRQGRGQIAFDDFIQGCIVLQRLTDIFRRYDTDQDGWIQVSYEQYLSMVFSIV | soluble |
| MGSDKIHHHHHHMVVASVVLWGKHVGAVLWNYDKGYATFEFEAGFLKSGLDVAPLTMPLANVSKGEIFQFAQLPKETFHGLPGLLSDALPDRFGNQLIDLWLASQGRDKASMSPVERLCYLGTRGMGALEFEPTVRNEKEPSKGLEIGALVELSKKALSMKASLDSHFSKEDAETFADIIKVGTSAGGARAKAVIAYNEQTGEVRSGQLHSPAGFEHWLIKFDGVTNEQLGDPKGYGRIEYAYYKMAIDADIIMMPSLLLEEGGRAHFMTKRFDRIVNNEKLHMQTLCGLCHFDYNNPEAYAYEQAFQAMRQLRLPYTDAEQLYIRMVFNVVARNQDDHTKNISFLMDKTGNWSLSPAYDVSYAYNPENKWIAKHQLAVNGKRENIMREDLLSVAKQMNIKKPKEIIEKITAVVSNWEGYAQEAGVPKNQITALGKTHLLKM | not soluble |
| MGSDKIHHHHHHMAVRIVSRQPLTKGWSTDQKYKVQLEDGRLGLLRIAERPAYEAKRLEFQLVENLFGLGLPVAEPLSFWADDLSVYTLYEWVEGQDMNEVATSLSDSVLYDLGCQSGKFLRTLHALPIDQSQRDWNSFYQVKIDNKLAAYQAASHSYPTGPAMIDFVQANRHLLEGRPIAYHHGDFHTGNFLLGPDGKLKILDFDRYDIGDPWEEFNRLIFTADLSPAFARGQVDAYFDGAIPEEFWKLMALYVTVNCLAALSWAEQVDSEQIPMMKLQAQKISEWYEYFNHHLPKWYM | not soluble |
| MLSMPWSEIDTVLLDMDGTLLDLHYDEHFWMQHLPQRYAELHGISFAMAWLELKPLFENNAGTLNWYCLDFWSTELKLSVRDLKREIAHMIALRPDAETFLAAIKQAGKRVIMITNAHRDSLSLKMERIELAPYFERLISSHDYGFPKESQHFWDALKAETAFDPARSLFIDDTLPILRSARHFGVAHLLAVSQPNSQKGPKDTEEFAAVGDYRELIKGL | not soluble |
| MTPEQAHARARATGPLPLGAGEPAPRGMVRLAHGDGTGLALQVWPDGATPSLLEEYQVAPVNVERSGETRRVLAAALKCCWTDLGADPWPGAPAPVEDVLSAYRALIGRGDDLMRNWAIGALRRLHDSAWLEVEDGVVRLGPRCACWPSESHAQLRELMRRLPTGDEGLTGLEVLPADGRAPAETAASVAPPEDVDEDLLGPFDERRRAEIVAAFIAVEHAAEPVHEARLPALRDPVLRRALAEMLQRRGRVLIQDREAWTSGYAPEVTAVTGTTVGEAERAVLVLVLIHSVAIPRADGLLPADSWLSPFPAQVEELRRHTRLPIGELEAALRTLRHAGLVTQVKAGEEAGGYTPGPQFHRLTPQARRGLQEELILAAGPHTPLAAAVRANRR | not soluble |
| MTEYLSVSALTKYIKYKFDQDPHLQSVLIKGELSNFKKHSSGHLYFNVKDKESVISAMMFKGNASKLGFEPKEGDEVLIEARVSVYERRGNYQIYVNKMQLDGIGNLYQKLELLKKKLKKEGYFNQSNKKLIPKYPKKIAVLTASTGAAIRDIHSTINNRYPLVEQIQISTLVQGTQARQDIIEKIQYADSLDVDTIIVGRGGGSIEDLWNFNEEDVVKTIFNCQTPIISAVGHETDFTLSDFVADVRAATPTQAAVIATPDQYELLQQIKQYEYTLSRYIKQYIEHQKKQLNHISSYYKFKQPSLLYDQQIQKRDELERQLNHLLNTKVEKSKHHLKLLQQSFNFKNLNQQITQEKQSIYQLHSRLSKIMSNNITNLKTVLKNKLESLNNLSPTNTMLRGYAIVNKDNEVVTSTHKLNENDQISLTMKDGSVDATVKKVRCNDE | not soluble |
